This note sets out measurements from patent US20040072369A1, “Methods for assaying for urea and kits for use therein” (priority 2002, published 2004).

Data set [1] relates to UreD-GFP fusion protein (urea-inducible ureD promoter). Briefly: Urea induction of UreD-GFP fusion, Western blot with anti-GFP. It is filed as cell-based, P. mirabilis HI4320. The conditions noted are these: 0-500 mM urea tested (FIG. 1). An excerpt:
Thus, to investigate in vivo expression of P. mirabilis urease, the gene encoding green fluorescent protein (GFP) was used to construct reporter fusions. Translational fusions of urease accessory gene ureD, which is preceded by a urea-inducible promoter, were made with gfp (modified to express S65TIV68L/S72A, a well-known variant of gfp). The constructs were confirmed by sequencing of the fusion junctions. UreD-GFP fusion protein was induced by urea in both E. coli DH5a and P. mirabilis HI4320. Thereafter, Western blotting was carried out with antiserum raised against GFP.
For orientation: A western blot detects proteins with antibodies after separation by electrophoresis.

The subject of data set [2] is ureD promoter (PureD-lacZ reporter construct). Briefly: β-galactosidase reporter assay (PureD-lacZ) with UreR constructs. The format is cell-based, E. coli Top10. As to the method: Cultures were grown to mid-log phase and induced with 0.2% (w/v) arabinose in the presence or absence of 100 mM urea for 90 min. All constructs were assayed in duplicate in five independent experiments.
More specifically, wild-type ureR was cloned into the NcoI/XhoI site of pBAD/MycHisA (Invitrogen) to create pCP016 (Poore et al, supra). This construct was used to create alanine mutants using overlapping PCR site-directed mutagenesis as described by Ho et al, Gene, 71:51-59 (1989); and Poore et al, supra. Full-length mutant ureR PCR products were then constructed by ligation into the NcoI/XhoI site of pBAD/MycHisA. Following PCR mutation to Ala, all of the cloned products in the pBAD vector were verified by sequencing. The constructs were then cotransformed with the reporter vector PureD-lacZ into E. coli Top10 (pCC142) (Invitrogen). The β-gal reporter construct pCC042 (tetR) carries a transcriptional fusion of the ureD promoter (pureD) and lacZ (Poore et al, supra). Unless otherwise stated, strains were cultured in Luria broth supplemented with ampicillin (100 μg/ml), kanamycin (50 μg/ml), or tetracycline (15 μg/ml) as required. Thereafter, activity was determined using a β-galactosidase reporter assay in the absence and presence of 100 mM urea.
More specifically, overnight cultures were diluted 1:10 into fresh medium supplemented with ampicillin. Mid-exponential cultures were induced with 0.2% (w/v) arabinose and either no urea or 100 mM urea for 1 h. Bacterial suspensions were placed on ice for 10 min and then permeabilized with 0.1% (w/v) SDS (50 μl) and chloroform (100 μl) at room temperature for 30 min. Aliquots (20-50 μl) were diluted to 1.0 ml in Z buffer comprising 200 μl o-nitrophenyl-β-D-galactopyranoside (4.0 mg/ml) and were incubated at room temperature. Timed reactions were stopped by addition of 1.0 M Na2CO3 (500 μl) and the optical densities at 420 nm and 550 nm were used to calculate Miller units for each assay (Platt et al, “Assays of β-galactosidase Activity”, In: Miller (ed.), Experiments in Molecular Genetics, Cold Spring Harbor Press, Cold Spring Harbor, N.Y., pages 352-355 (1972)). […] The results, which are shown in Table 1 below, are expressed as the average of at least three independent experiments.
The UreR Trp point mutants were confirmed by sequencing and were tested for the ability to induce β-galactosidase expression using the PureD-lacZ reporter assay in the presence of 100 mM urea as described above.
On the technique in general: A reporter such as luciferase makes a cellular process visible.

A short description of data set [3]: Trp emission spectra of purified nUreR Trp mutants titrated with urea. Conditions: upon addition of urea (0-150 mM); excitation 280 nm; room temperature. It is filed as binding.
Description: Protein samples (2.0 μM) in 50 mM PBS (pH 7.0), were excited at 280 nm at room temperature.
Three independent experiments were used to calculate the binding constant for this mutant. ΔTrp Emission is the difference in Trp emission intensity with and without urea. The binding constant was determined by fitting the data to the corresponding Hill parameters.
More specifically, Trp emission spectra were collected at room temperature using a Varian Cary Eclipse spectrofluorometer. Purified nUreR Trp mutants (5.0 μM) were excited at 280 nm and urea-dependent emission spectra were measured on the same sample following titration with increasing concentrations (0-150 mM) of urea.
The corresponding Hill parameters were invoked using the curve fitting functions packaged with the Microcal Origin 6.0 data analysis graphing program (Northampton, Mass.).
Trp fluorescence emission spectra from 300-450 nm were taken in the presence of increasing concentrations of urea (0, 0.05, 1, 10, 100 and 150 mM).

With `NC(N)=O` [urea], in data set [1], the “urea concentration giving highest induction of UreD-GFP” value is 200 to 500 mM.

B1: Y54W UreR (protein, UniProt Q02458 1-293, looked up, variant Y54W)
Urease operon transcriptional …: MEYKHILSSNQISLKTFYIENPMIAIVYGAKGEICINGQTITVTTNLTLIIPKWSQVSCDVTNFFPTKPIELHTLVLSETELQSVFSLLKPLIKSGAPITRHLPDYHLSTPEVVKTNFTLLQQCLPLEHGTPSQETLFMQQSLFFILLAVYHEGVDILNIFRFNYDEPKNQAITHLITQDPQRKWHLEDVAKTLYTTPSTLRRHLSKEGVSFCQLLLDVRMPIALNYLTFSNYSVFQISHRCGFGSNAYFCDAFKRKYGMTPSQFRTQSRQANDPNAIATMASQNDESIKKVF
Consider B1, for which the “fold induction in β-galactosidase activity” value in data set [2] (addition of 100 mM urea (FIG. 3)) was 2.8 fold. Besides, the “β-galactosidase reporter activity compared to wild-type UreR” value in data set [2] (full-length UreR Trp point mutants, 100 mM urea (FIG. 3)) was “overall reduction in the level of activation”.

B2: Wild-type: wild-type P. mirabilis UreR expressed from pBAD/MycHisA (pCP016) (protein, UniProt Q02458 1-293, looked up)
Urease operon transcriptional …: MEYKHILSSNQISLKTFYIENPMIAIVYGAKGEICINGQTITVTTNLTLIIPKYSQVSCDVTNFFPTKPIELHTLVLSETELQSVFSLLKPLIKSGAPITRHLPDYHLSTPEVVKTNFTLLQQCLPLEHGTPSQETLFMQQSLFFILLAVYHEGVDILNIFRFNYDEPKNQAITHLITQDPQRKWHLEDVAKTLYTTPSTLRRHLSKEGVSFCQLLLDVRMPIALNYLTFSNYSVFQISHRCGFGSNAYFCDAFKRKYGMTPSQFRTQSRQANDPNAIATMASQNDESIKKVF
modifications: Myc-His tag from pBAD/MycHisA
As to B2, the “β-Galactosidase Activity (Miller units), 0 mM urea” value in data set [2] (0 mM urea, 0.2% arabinose induction, average of at least three experiments) came to 632 ± 203 Miller units. In addition, the “β-Galactosidase Activity (Miller units), 100 mM urea” value in data set [2] (100 mM urea, 0.2% arabinose induction, average of at least three experiments) stood at 3709 ± 1570 Miller units.

B3: Y151W nUreR (protein, UniProt Q02458 1-293, looked up, variant Y151W)
Urease operon transcriptional …: MEYKHILSSNQISLKTFYIENPMIAIVYGAKGEICINGQTITVTTNLTLIIPKYSQVSCDVTNFFPTKPIELHTLVLSETELQSVFSLLKPLIKSGAPITRHLPDYHLSTPEVVKTNFTLLQQCLPLEHGTPSQETLFMQQSLFFILLAVWHEGVDILNIFRFNYDEPKNQAITHLITQDPQRKWHLEDVAKTLYTTPSTLRRHLSKEGVSFCQLLLDVRMPIALNYLTFSNYSVFQISHRCGFGSNAYFCDAFKRKYGMTPSQFRTQSRQANDPNAIATMASQNDESIKKVF
On to B3, for which the “% Decrease in Trp Emission” value in data set [3] worked out at 9 ± 2%.
